According to US20210206842A1 (NATIONAL RESEARCH COUNCIL OF CANADA, published 2021):

How the values were obtained:
VHH FC5 [1] = target: T1, VHH FC5; test: ELISA, hybridoma supernatant on coated purified FC5-VHH
T1 construct: put together from its FR and CDR entries; also called FC5-VHH; FC5 control
Procedure: (§1) Screening. Hybridoma supernatants were screened by ELISA to detect specific binders. To this end, 96-well half-area plates (Costar #3690) were coated with 25 μl of FC5DIE3IR or FC5-VHH or FC5-hFc-1X0 at 5 μg/ml in PBS and incubated overnight at 4° C. Microplates were washed 3 times with PBS, blocked with PBS-BSA 1%, and 25 μl of hybridoma supernatants were added and incubated at 37° C., 5% CO₂ for 2 hours. […] After 4 washes with PBS-Tween 20 0.05%, 25 μl of a 1 mg/ml pNPP substrate solution was added and further incubated for one hour at 37° C.

peptide #2a (20 aa) = target: T2, peptide #2a (20 aa) (human); test: ELISA on coated P2a, mAb at the dilutions 1:1000, 1:5000 and 1:10000, Abs 450nm
T2 construct: Custom-synthesized (Biomatik); also called pep #2a; P2a
T2 peptide: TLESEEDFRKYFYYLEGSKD
Procedure: (§2) The peptides were custom-synthesized (Biomatik) and tested for antibody binding by ELISA. […] The wells were blocked with 1% BSA in TBS-T for 30 min and then incubated with 1:1000 dilution of anti-hNaᵥ1.7 mAb at room temperature (RT) for one hr.

human Nav1.7 polypeptide [2] = target: T3, human Nav1.7 polypeptide (human, UniProt Q15858 1-1988); test: cell ELISA, hybridoma supernatant on live CHO cells expressing human Nav1.7, duplicate 2
T3 construct: also called hNav1.7; SCN9A
Procedure: (§3) Cell-ELISA. Sterile 96-well plates (Costar #3595) were pre-treated with 50 μl/well of branched polyethyleneimine (PEI, Sigma Cat #408727) at 25 μg/ml in PBS for 30 min at room temperature. PEI was removed and CHO-3E7 or hNAᵥ1.7-CHO (ChanTest cat #CT4003) were seeded at 6×10⁵ cells per well in FreeStyle F17 Expression Medium (Gibco Cat #A1383501) and incubated overnight at 37° C., 5% CO₂. Microplates were blocked with Starting block (Thermofisher Cat #37538) for 30 min at room temperature, and 50 μl of hybridoma supernatants were added and incubated at 4° C. for 3 h. […] After 10 washes with PBS, 50 μl of TMB substrate solution (Pierce Cat #34021) was added and further incubated for 60 min at room temperature.

[3] = target: T4, FC5DIE3IR recombinant protein; test: ELISA, hybridoma supernatant on coated purified FC5DIE3IR
T4 construct: Made in CHO-3E7 cells; also called FC5DIE31R; FC5DIE3R
Procedure: as §1

[4] = target: T4, FC5DIE3IR recombinant protein; test: ELISA on coated FC5DIE3IR, serial dilutions of purified mAb; fit One site - Specific binding with Hill slope
Procedure: as §1
(§4) Evaluation of apparent affinity in ELISA. Purified antibodies were assessed for their binding activity by ELISA in a dose-dependent binding curve. Serial 1/3 dilutions of purified mAbs starting at 120 nM were applied onto wells and ELISA was performed as described above (screening section). The data were analyzed with GraphPad Prism software using one-site specific binding-with Hill slope non-linear regression curve fit model to determine Bₘₐₓ (maximum specific binding) and Kdₐₚₚ (concentration needed to achieve a half-maximum binding at equilibrium) for each mAb tested.

[5] = target: T4, FC5DIE3IR recombinant protein; test: ELISA on coated FC5DIE3IR, serial dilutions of purified mAb, OD 405 nm; fit One site - Specific binding with Hill slope; apparent Kd in the unit of the concentration axis (nM), the table itself prints no unit
Procedure: as §1, §4

VHH FC5 [6] = target: T1, VHH FC5; test: SPR, single cycle kinetics, Fc-captured mAb, FC5 flowed, 25 C
Procedure: (§5) HBS-EP running buffer used for SPR experiments. […] Test binding experiments of FC5 control and FC5DIE3IR involved flowing 1 μM concentrations of SEC-pure material over the mAb surface at a flow rate of 30 μl/min for 5 min. Surfaces could be regenerated using 10 mM glycine, pH 1.7, with a 120 sec pulse at 20 μl/min. All SPR experiments were evaluated with Biacore T200 Software v 3.0. […] Regeneration conditions were the same as above. Data were fit to a 1:1 binding model and analyzed using the Biacore T200 Software v3.0.

peptide #2b (20 aa) = target: T5, peptide #2b (20 aa) (human); test: ELISA on coated P2b, mAb at the dilutions 1:1000, 1:5000 and 1:10000, Abs 450nm
T5 construct: Custom-synthesized (Biomatik); also called pep #2b; P2b
T5 peptide: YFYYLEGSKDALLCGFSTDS
Procedure: as §2

peptide #40b (40 aa) = target: T6, peptide #40b (40 aa) (human); test: ELISA on coated peptide or FC5DIE3IR, mAb detected with HRP anti-mouse Fc, Abs 450nm
T6 construct: Custom-synthesized (Biomatik); also called pep #40b; P40b
Procedure: as §2

peptide #40a (40 aa) = target: T7, peptide #40a (40 aa) (human); test: as above
T7 construct: Custom-synthesized (Biomatik); also called pep #40a; P40a
T7 peptide: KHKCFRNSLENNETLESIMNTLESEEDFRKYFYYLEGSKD
Procedure: as §2

human Nav1.7 polypeptide [7] = target: T3, human Nav1.7 polypeptide; test: cell ELISA, hybridoma supernatant on live CHO cells expressing human Nav1.7, duplicate 1
Procedure: as §3

[8] = target: T4, FC5DIE3IR recombinant protein; test: SPR (Biacore T200), single cycle kinetics, Fc-captured mAb, FC5DIE3IR flowed (320 nM-20 nM), 1:1 model, 25 C
Procedure: as §5

human Nav1.7 polypeptide [9] = target: T3, human Nav1.7 polypeptide; test: cell-based or functional assay
VHH FC5 [10] = target: T1, VHH FC5; test: SPR, mAb 1G5 and FC5, 25 C
[11] = target: T4, FC5DIE3IR recombinant protein; test: apparent KD (Kdapp), ELISA dose curve of purified mAb on coated FC5DIE3IR; 1G5 clone (IgG1), ELISA apparent KD
Procedure: as §1, §4

[12] = target: T4, FC5DIE3IR recombinant protein; test: SPR, mAb 1G5 and FC5DIE3IR, 25 C

T1 sequence (VHH, as listed by the source): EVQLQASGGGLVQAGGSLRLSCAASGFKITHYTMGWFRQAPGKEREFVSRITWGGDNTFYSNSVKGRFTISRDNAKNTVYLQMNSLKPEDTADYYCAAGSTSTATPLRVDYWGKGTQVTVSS

B1: anti-hNav1.7 mAb 2G11 (antibody, V domains shown)
VH: QVQLQQPGAELVKPGASVKLSCKASGYTFTTYWMHWVKQRPGQGLEWIGEINPSNGRANYNEKFKSKATLTVDKSSSTAYMQLSSLTSEDSAVYYCLRSLGYFDYWGQGTTLTVSS
VL: DVVMTQSPLSLPVSLGDQASISCRSSQSLVHSNGNTYLHWYLQKAGQSPKFLIYKVSNRFSGVPDRFSGSGSGTDFTLKISRVEAEDLGVYFCSQSTHVPYTFGGGTKLEIK
Question: For B1, which “ELISA signal (OD 405 nm)” value (VHH FC5 [1]) is on record?
Answer: 0.021 OD 405 nm

Question: Does B1 bind (peptide #2a (20 aa))?
Answer: no binding (tested: 1:1000 dilution)

Question: And the “cell ELISA signal (OD 450 nm)” value (human Nav1.7 polypeptide [2])?
Answer: 0.049 OD 450 nm

Question: What about the “ELISA signal (OD 405 nm)” value [3] of the same binder?
Answer: 0.86 OD 405 nm

Question: And the Bmax [4]?
Answer: 1.84 OD405 nm

Question: What about the Kd [5] of the same binder?
Answer: 0.847 nM

Question: Does B1 bind (VHH FC5 [6])?
Answer: no binding

Question: Does B1 bind (peptide #2b (20 aa))?
Answer: no binding (tested: 1:1000 dilution)

Question: Does B1 bind (peptide #40b (40 aa))?
Answer: no binding

Question: Does B1 bind (peptide #40a (40 aa))?
Answer: binds

Question: And the “cell ELISA signal (OD 450 nm)” value (human Nav1.7 polypeptide [7])?
Answer: 0.041 OD 450 nm

Question: And the Kd [8]?
Answer: 55.1 nM

Question: And the koff [8]?
Answer: 0.000526 s⁻¹

Question: And the kon [8]?
Answer: 9560 M⁻¹ s⁻¹

B2: mAb 1G5 (antibody, V domains shown)
VH: QVQLQQPGAELVKPGASVKLSCKASGYTFTSYWINWVKQRPGQGLEWIGNIYPGNSNTNYNEKFKSKATLTVDKSSSTAYMQLSSLTSEDSAVYYCARRYYYDYDDAMDYWGQGTSVTVSS
VL: DIVLTQSPASLAVSLGQRATISCRASESVDSYGNGFMHWYQQKPGQPPKLLIYRASNLESGIPARVSGSGSRTDFTLTINPVEADDVATYYCQQSNEDPWTFGGGTKLEIK
notes: also called negative control
Question: Which results are given for B2?
Answer: ELISA signal (OD 405 nm) (VHH FC5 [1]): 0.096 OD 405 nm; Reduction currents (%) at 1 µM (human Nav1.7 polypeptide [9]): 0.77%; cell ELISA signal (OD 450 nm) (human Nav1.7 polypeptide [2]): 0.225 OD 450 nm; ELISA signal (OD 405 nm) [3]: 1.14 OD 405 nm; Kd (VHH FC5 [10]): 58.8 nM; koff (VHH FC5 [10]): 0.017 s⁻¹; kon (VHH FC5 [10]): 289000 M⁻¹ s⁻¹; Bmax [4]: 0.635 OD405 nm; Kd [5]: 5.04 nM; Kd [11]: 4.8 nM; cell ELISA signal (OD 450 nm) (human Nav1.7 polypeptide [7]): 0.172 OD 450 nm; Kd [12]: 186 nM; koff [12]: 0.0136 s⁻¹; kon [12]: 72900 M⁻¹ s⁻¹
